Measurements from patent US20070238638A1 (TANOX, published 2007).

Target: T1, NFκB family member p65 (human, UniProt Q04206 1-551)
T1 construct: also called p65 NFκB protein
Test: EMSA gel supershift, HT29 nuclear extract on κB1 oligonucleotide
Experimental: Gel supershift assays were performed as described above, except that antibodies specific for various promoter-binding proteins were added after the initial binding reaction and the mixture was incubated overnight at 4° C.

T1 sequence (Q04206 whole entry): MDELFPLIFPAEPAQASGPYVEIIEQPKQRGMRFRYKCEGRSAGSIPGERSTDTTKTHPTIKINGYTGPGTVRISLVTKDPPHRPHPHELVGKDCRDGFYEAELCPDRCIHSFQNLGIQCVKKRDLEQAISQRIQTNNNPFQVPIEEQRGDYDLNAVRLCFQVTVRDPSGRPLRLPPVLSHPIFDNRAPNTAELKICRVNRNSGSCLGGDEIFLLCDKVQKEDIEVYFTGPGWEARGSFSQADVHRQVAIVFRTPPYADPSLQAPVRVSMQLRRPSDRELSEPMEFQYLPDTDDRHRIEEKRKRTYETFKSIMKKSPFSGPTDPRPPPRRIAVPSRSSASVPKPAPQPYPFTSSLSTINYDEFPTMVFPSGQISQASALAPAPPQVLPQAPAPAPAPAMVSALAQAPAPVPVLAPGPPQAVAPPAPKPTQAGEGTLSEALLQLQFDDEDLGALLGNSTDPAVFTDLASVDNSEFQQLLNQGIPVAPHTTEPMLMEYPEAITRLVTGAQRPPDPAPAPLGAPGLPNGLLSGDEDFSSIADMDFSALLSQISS

binding result: binds
B1: NFκB family member p50 (other, human, UniProt P19838 1-433, looked up)
chain: MAEDDPYLGRPEQMFHLDPSLTHTIFNPEVFQPQMALPTDGPYLQILEQPKQRGFRFRYVCEGPSHGGLPGASSEKNKKSYPQVKICNYVGPAKVIVQLVTNGKNIHLHAHSLVGKHCEDGICTVTAGPKDMVVGFANLGILHVTKKKVFETLEARMTEACIRGYNPGLLVHPDLAYLQAEGGGDRQLGDREKELIRQAALQQTKEMDLSVVRLMFTAFLPDSTGSFTRRLEPVVSDAIYDSKAPNASNLKIVRMDRTAGCVTGGEEIYLLCDKVQKDDIQIRFYEEEENGGVWEGFGDFSPTDVHRQFAIVFKTPKYKDINITKPASVFVQLRRKSDLETSEPKPFLYYPEIKDKEEVQRKRQKLMPNFSDSFGGGSGAGAGGGGMFGSGGGGGGTGSTGPGYSFPHYGFPTYGGITFHPGTTKSNAGMKHG
notes: also called p50 NFκB protein
